Experimental data taken from publication PMC6198961, “The dimeric structure of wild-type human glycosyltransferase B4GalT1” (PLoS ONE, 2018).

Biological target: the molecule itself
Experiment: SEC; gel filtration on a 24 ml Superdex 200 HR 10/30 column calibrated with γ-globulin (158 kDa), ovalbumin (44 kDa) and myoglobin (17 kDa); monomer and dimer

B1: catalytic domain of human B4GalT1 (Asp99-Ser398), wild type (domain or fragment, UniProt P15291 99-398, looked up)
chain: DSSPVVDSGPGPASNLTSVPVPHTTALSLPACPEESPLLVGPMLIEFNMPVDLELVAKQNPNVKMGGRYAPRDCVSPHKVAIIIPFRNRQEHLKYWLYYLHPVLQRQQLDYGIYVINQAGDTIFNRAKLLNVGFQEALKDYDYTCFVFSDVDLIPMNDHNAYRCFSQPRHISVAMDKFGFSLPYVQYFGGVSALSKQQFLTINGFPNNYWGWGGEDDDIFNRLVFRGMSISRPNAVVGRCRMIRHSRDKKNEPNPQRFDRIAHTKETMLSDGLNSLTYQVLDVQRYPLYTQITVDIGTPS
notes: EC 2.4.1.38), human, residues Asp99-Ser398: a piece of the stem domain (Asp99-Leu125) and the catalytic domain (Ser126-Ser398); the construct's calculated molecular weight is printed as 36.35 kDa; The tag is surmised from the nickel purification; In equilibrium between monomer and dimer; also called Beta-1,4-galactosyltransferase 1; recombinant B4GalT1; source: E. coli BL21(DE3) with the CyDisCo …
stoichiometry N: 2
